± gives the uncertainty stated by the source.

The data set in a line: self-splicing fitness, log relative to wild type (ln ratio); higher = more splicing; Tetrahymena group I intron in knt gene, E. coli kanamycin selection, DiMSum; sequences stand for … in CUCUCU…GGAGGGAAAAGUUAUCAGGCAUGCACCUGGUAGCUAGUCUUUAAACCAAUAGAUUGCAUCGGUUUAAAAGGCAAGACCGUCAAAUUGCGGGAAAGGGGUCAACAGCCGUUCAGUACCAAGUCUCAGGGGAAACUUUGAGAUGGCCUUGCAAAGGGUAUGGUAAUAAGCUGACGGACAUGGUCCUAACCACGCAGCCAAGUCCUAAGUCAACAGAUCUUCUGUUGAUAUGGAUGCAGUUCACAGACUAAAUGUCGGUCGGGGAAGAUGUAUUCUUCUCAUAAGAUAUAGUCGGACCUCUCCUUAAUGGGAGCUAGCGGAUGAAGUGAUGCAACACUGGAGCCGCUGGGAACUAAUUUGUAUGCGAAAGUAUAUUGAUUAGUUUUGGAGUACUCGUGGUCG
An outline of the steps: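 The eight P1ex-region nucleotides of an intron in the knt kanamycin-resistance gene on pET-22b(+) were all randomised and the library put into E. coli BL21(DE3). Six replicate transformations were grown overnight at 37°C or 30°C on LB agar with or without 25 μg/mL kanamycin, together with 100 μg/mL carbenicillin, 50 μM IPTG and 0.2% rhamnose. Colonies were pooled and amplicon-sequenced on an Illumina HiSeq 2500. Fitness from DiMSum is the error-weighted combination of wild-type-normalised replicate fold changes, kanamycin over none.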

As to GGGCAGCAAUAUUACGAGUC, the “self-splicing fitness (ln)” value is, setting by setting: (30 °C) -1.84 ± 0.21; (37 °C) -1.81 ± 0.28.
For UGUCAGCAAUAUUACGUGGG, the “self-splicing fitness (ln)” value by setting is: (30 °C) -1.94 ± 0.073; (37 °C) -0.96 ± 0.082.
Taken in the same sequence, the figures for CACAAGCAAUAUUACGAGUC were -3.71 ± 0.17 and -2.26 ± 0.16.
Regarding CCCGAGCAAUAUUACGCAAA, the “self-splicing fitness (ln)” value was -4.05 ± 0.35 (30 °C) and -0.386 ± 0.21 (37 °C).
As to CAAAAGCAAUAUUACGAAUA, the “self-splicing fitness (ln)” value (30 °C) was -2.77 ± 0.16 and the “self-splicing fitness (ln)” value (37 °C) was -1.5 ± 0.15.
Taken in the same sequence, the figures for UGUAAGCAAUAUUACGGAUA were -1.38 ± 0.11 and -1.27 ± 0.12.
In the same order, the values of CAGCAGCAAUAUUACGACGU are -0.896 ± 0.076 and -0.529 ± 0.079.
Consider UAGGAGCAAUAUUACGUCUC, for which the “self-splicing fitness (ln)” value (30 °C) was -2.51 ± 0.49.
With CACUAGCAAUAUUACGGUCC, the “self-splicing fitness (ln)” value runs as follows: (30 °C) -2.4 ± 0.12; (37 °C) -1.29 ± 0.15.
As to AAUCAGCAAUAUUACGGGAA, the “self-splicing fitness (ln)” value was -1.37 ± 0.097 (30 °C) and 0.137 ± 0.078 (37 °C).
UAAGAGCAAUAUUACGUGAC: the “self-splicing fitness (ln)” value runs as follows: (30 °C) -3.63 ± 0.27; (37 °C) -2.8 ± 0.34.
Taken in the same sequence, the figures for UAACAGCAAUAUUACGGAUC were -3.92 ± 0.22 and -2.17 ± 0.15.
As to UCUCAGCAAUAUUACGUUGU, the “self-splicing fitness (ln)” value (30 °C) is -3.71 ± 0.21 and the “self-splicing fitness (ln)” value (37 °C) was -3.39 ± 0.21.
Turning to UGAGAGCAAUAUUACGAGUC, the “self-splicing fitness (ln)” value (37 °C) was -3.22 ± 0.47.
Consider GUCGAGCAAUAUUACGCUCG, for which the “self-splicing fitness (ln)” value (30 °C) was -1.76 ± 0.37.
Turning to CCCAAGCAAUAUUACGACGC, the “self-splicing fitness (ln)” value is, setting by setting: (30 °C) -2.8 ± 0.22; (37 °C) -0.545 ± 0.23.
In the same order, the values of CAUCAGCAAUAUUACGGUUG are -2.29 ± 0.072 and -0.804 ± 0.079.
Taken in the same sequence, the figures for CGUCAGCAAUAUUACGUGAG were -0.162 ± 0.04 and -0.124 ± 0.061.
In the same order, the values of CACUAGCAAUAUUACGCAGC are -3.17 ± 0.31 and -2.28 ± 0.37.
Turning to AGGAAGCAAUAUUACGGUUG, the “self-splicing fitness (ln)” value is, setting by setting: (30 °C) -3.3 ± 0.17; (37 °C) -2.23 ± 0.16.
Regarding CCAUAGCAAUAUUACGUAGU, the “self-splicing fitness (ln)” value reads like this: (30 °C) -3.93 ± 0.24; (37 °C) -2.14 ± 0.23.
Taken in the same sequence, the figures for CUCCAGCAAUAUUACGUCCU were -3.42 ± 0.28 and -3.01 ± 0.38.
In the same order, the values of GCGUAGCAAUAUUACGAAAC are -0.751 ± 0.25 and -0.283 ± 0.4.
In the same order, the values of CUGAAGCAAUAUUACGGGUA are -3.21 ± 0.15 and -3.96 ± 0.42.
As to GAACAGCAAUAUUACGUUAU, the “self-splicing fitness (ln)” value (30 °C) was -2.01 ± 0.066 and the “self-splicing fitness (ln)” value (37 °C) was -1.13 ± 0.077.
AUGUAGCAAUAUUACGUAGG: the “self-splicing fitness (ln)” value (30 °C) was -3.93 ± 0.19 and the “self-splicing fitness (ln)” value (37 °C) is -1.43 ± 0.096.
Taken in the same sequence, the figures for UUCGAGCAAUAUUACGCGUG were -1.06 ± 0.13 and -0.676 ± 0.14.
In the case of UAGCAGCAAUAUUACGGGUC, the “self-splicing fitness (ln)” value (37 °C) was -3.65 ± 0.42.
Consider AAAGAGCAAUAUUACGGUGA, for which the “self-splicing fitness (ln)” value (30 °C) is -3.87 ± 0.22 and the “self-splicing fitness (ln)” value (37 °C) is -1.93 ± 0.14.
In the same order, the values of CAGCAGCAAUAUUACGUUUG are -3.1 ± 0.16 and -2.01 ± 0.16.
AGCAAGCAAUAUUACGUGUU: the “self-splicing fitness (ln)” value runs as follows: (30 °C) -3.17 ± 0.18; (37 °C) -2.64 ± 0.17.
For the sequence UCAAAGCAAUAUUACGUGCA, the “self-splicing fitness (ln)” value was -0.542 ± 0.048 (30 °C) and 0.0292 ± 0.065 (37 °C).
With UGCUAGCAAUAUUACGCCUU, the “self-splicing fitness (ln)” value is -2.68 ± 0.23 (30 °C) and 0.255 ± 0.17 (37 °C).
Taken in the same sequence, the figures for CUAAAGCAAUAUUACGGGCU were -4.47 ± 0.18 and -2.59 ± 0.16.
For UUGUAGCAAUAUUACGGGGU, the “self-splicing fitness (ln)” value is -3.7 ± 0.46 (30 °C) and -2.68 ± 0.27 (37 °C).
Turning to GGAAAGCAAUAUUACGUACA, the “self-splicing fitness (ln)” value was -0.523 ± 0.14 (30 °C) and 6.9e-05 ± 0.15 (37 °C).
With UAACAGCAAUAUUACGUUCG, the “self-splicing fitness (ln)” value was -0.514 ± 0.057 (30 °C) and 0.266 ± 0.073 (37 °C).
In the same order, the values of CUUCAGCAAUAUUACGGCGC are -3.07 ± 0.13 and -3.29 ± 0.19.
Taken in the same sequence, the figures for UUUCAGCAAUAUUACGAGUG were -0.489 ± 0.094 and -0.205 ± 0.11.
